From PMC1405818

Assays:
[1] = target: T1, LEDGF/p75 wild type (human, UniProt O75475 1-530); assay: EMSA
[2] = target: LEDGF/p75 93-226 (human, UniProt O75475 93-226); assay: EMSA
[3] = target: T1, LEDGF/p75 wild type; assay: SPR
[4] = target: T1, LEDGF/p75 wild type; assay: EMSA; remark: listed apart in the source
[5] = target: LEDGF/p75 347-530 (IBD fragment) (human, UniProt O75475 347-530); assay: EMSA
[6] = target: LEDGF/p75 1-116 (PWWP domain) (human, UniProt O75475 1-116); assay: EMSA
[7] = target: MutL4 (human, UniProt O75475 1-530, R180A;G181A;R182A); assay: SPR
Sequence of MutL4 (O75475 whole entry R180A/G181A/R182A): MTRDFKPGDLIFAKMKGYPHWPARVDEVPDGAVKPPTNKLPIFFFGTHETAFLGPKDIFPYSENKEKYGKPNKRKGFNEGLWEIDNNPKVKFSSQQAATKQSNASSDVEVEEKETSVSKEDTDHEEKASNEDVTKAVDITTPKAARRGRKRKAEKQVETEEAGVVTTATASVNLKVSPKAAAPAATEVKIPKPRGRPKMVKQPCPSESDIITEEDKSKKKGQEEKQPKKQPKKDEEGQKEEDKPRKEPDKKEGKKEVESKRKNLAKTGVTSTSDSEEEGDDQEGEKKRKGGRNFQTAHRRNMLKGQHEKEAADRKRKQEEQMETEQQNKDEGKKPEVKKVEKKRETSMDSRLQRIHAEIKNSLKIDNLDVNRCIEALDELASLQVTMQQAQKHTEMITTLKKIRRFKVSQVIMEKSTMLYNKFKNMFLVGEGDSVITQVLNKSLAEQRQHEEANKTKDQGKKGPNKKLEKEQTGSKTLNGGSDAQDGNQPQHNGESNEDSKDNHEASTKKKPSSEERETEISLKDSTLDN

[8] = target: MutL5 (human, UniProt O75475 1-530, R194A;G195A;R196A); assay: SPR
Sequence of MutL5 (O75475 whole entry R194A/G195A/R196A): as the sequence (O75475 whole entry R180A/G181A/R182A) above, with A180R, A181G, A182R, R194A, G195A, R196A counted along it

[9] = target: MutL3 (human, UniProt O75475 1-530, R180A;G181A;R182A;R194A;G195A;R196A); assay: SPR
Sequence of MutL3 (O75475 whole entry R180A/G181A/R182A/R194A/G195A/R196A): as the sequence (O75475 whole entry R180A/G181A/R182A) above, with R194A, G195A, R196A counted along it

[10] = target: T1, LEDGF/p75 wild type; assay: SPR; remark: listed apart in the source

T1 sequence (O75475 whole entry): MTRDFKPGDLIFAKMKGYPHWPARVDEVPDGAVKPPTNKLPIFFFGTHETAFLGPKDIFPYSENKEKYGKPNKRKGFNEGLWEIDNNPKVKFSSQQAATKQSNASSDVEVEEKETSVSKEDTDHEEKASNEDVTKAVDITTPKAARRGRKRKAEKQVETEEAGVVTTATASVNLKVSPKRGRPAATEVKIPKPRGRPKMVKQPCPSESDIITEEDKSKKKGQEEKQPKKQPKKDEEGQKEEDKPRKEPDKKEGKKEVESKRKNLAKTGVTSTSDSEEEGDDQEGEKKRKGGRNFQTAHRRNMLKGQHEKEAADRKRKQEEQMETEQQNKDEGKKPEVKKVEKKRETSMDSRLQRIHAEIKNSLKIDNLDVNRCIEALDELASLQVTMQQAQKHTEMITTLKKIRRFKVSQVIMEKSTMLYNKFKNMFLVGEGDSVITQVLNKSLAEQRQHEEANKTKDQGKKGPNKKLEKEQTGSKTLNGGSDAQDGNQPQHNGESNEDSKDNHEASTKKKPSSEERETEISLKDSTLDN
Sequence of LEDGF/p75 93-226 (O75475 93-226): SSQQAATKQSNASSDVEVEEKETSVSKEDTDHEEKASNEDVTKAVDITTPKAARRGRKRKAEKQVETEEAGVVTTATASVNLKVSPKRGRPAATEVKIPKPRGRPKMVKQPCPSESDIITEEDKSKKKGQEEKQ
Sequence of LEDGF/p75 1-116 (PWWP domain) (O75475 1-116): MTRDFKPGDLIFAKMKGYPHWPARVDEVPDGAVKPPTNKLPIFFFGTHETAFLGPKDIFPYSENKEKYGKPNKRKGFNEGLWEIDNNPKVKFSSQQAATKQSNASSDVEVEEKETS
Sequence of LEDGF/p75 347-530 (IBD fragment) (O75475 347-530): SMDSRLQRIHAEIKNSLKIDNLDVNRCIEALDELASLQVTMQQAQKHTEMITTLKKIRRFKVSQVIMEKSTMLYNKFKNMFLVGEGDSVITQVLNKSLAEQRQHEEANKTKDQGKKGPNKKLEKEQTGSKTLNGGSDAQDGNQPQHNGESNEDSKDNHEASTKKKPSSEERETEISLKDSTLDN

B1: HSE EMSA duplex (AE1197/AE1198) (dsDNA)
DNA 1: TTAACGAGAGAAGGTTCCAGA
DNA 2: TCTGGAACCTTCTCTCGTTAA
[1]
  binding result: binds
[2]
  binding result: binds

B2: HSE SPR duplex (AE2019/AE1198) (dsDNA)
DNA 1: GATTTAACGAGAGAAGGTTCCAGA
DNA 2: TCTGGAACCTTCTCTCGTTAA
[3]
  binding result: binds

B3: Mut2 SPR duplex (AE2043/AE2002) (dsDNA)
DNA 1: GATTTAACGAGATAATTTTACAGA
DNA 2: TCTGTAAAATTATCTCGTTAA
[3]
  binding result: binds

B4: Mut2 EMSA duplex (AE2001/AE2002) (dsDNA)
DNA 1: TTAACGAGATAATTTTACAGA
DNA 2: TCTGTAAAATTATCTCGTTAA
[1]
  binding result: binds
[2]
  binding result: binds

B5: Mut1 EMSA duplex (AE1199/AE2000) (dsDNA)
DNA 1: TTAACTAAATAAATTTTAAAA
DNA 2: TTTTAAAATTTATTTAGTTAA
[4]
  binding result: binds
[5]
  binding result: no binding
[6]
  binding result: no binding

B6: Mut1 SPR duplex (AE2042/AE2000) (dsDNA)
DNA 1: GATTTAACTAAATAAATTTTAAAA
DNA 2: TTTTAAAATTTATTTAGTTAA
[7]
  binding signal: ~45 % of WT stably bound
[8]
  binding signal: ~13 % of WT stably bound
[9]
  binding signal: ~7 % of WT stably bound
[10]
  binding signal: 100 % of WT stably bound
